Assay results published in article PMC9035363 (Cell Reports, 2022).
Like-named read-outs stand apart in the source and are kept apart here.

Legend:
Assay in all cases: SPR
[1] = molecular target: T1, SARS-CoV-2 S protein, soluble trimer (SARS-CoV-2, Wuhan reference …, UniProt P0DTC2, stabilised)
[2] = molecular target: T1, SARS-CoV-2 S protein, soluble trimer; remark: listed apart in the source
[3] = molecular target: T2, SARS-CoV-2 D614G S protein, soluble trimer (SARS-CoV-2, Wuhan sequence with D614G, UniProt A0A6H1PJZ3, D614G)
[4] = molecular target: T2, SARS-CoV-2 D614G S protein, soluble …; remark: listed apart in the source

B1: REGN10987 (imdevimab) (antibody, V domains shown)
VH: QVQLVESGGGVVQPGRSLRLSCAASGFTFSNYAMYWVRQAPGKGLEWVAVISYDGSNKYYADSVKGRFTISRDNSKNTLYLQMNSLRTEDTAVYYCASGSDYGDYLLVYWGQGTLVTVSS
VL: QSALTQPASVSGSPGQSITISCTGTSSDVGGYNYVSWYQQHPGKAPKLMIYDVSKRPSGVSNRFSGSKSGNTASLTISGLQSEDEADYYCNSLTSISTWVFGGGTKLTVL
binding result [1]: binds

B2: LY-CoV1404 (bebtelovimab), full-length human IgG1 mAb (antibody, V domains shown)
VH: QITLKESGPTLVKPTQTLTLTCTFSGFSLSISGVGVGWLRQPPGKALEWLALIYWDDDKRYSPSLKSRLTISKDTSKNQVVLKMTNIDPVDTATYYCAHHSISTIFDHWGQGTLVTVSS
VL: QSALTQPASVSGSPGQSITISCTATSSDVGDYNYVSWYQQHPGKAPKLMIFEVSDRPSGISNRFSGSKSGNTASLTISGLQAEDEADYYCSSYTTSSAVFGGGTKLTVL
Kd [2]: 74.5 pM
Kd [3]: 46.1 pM
Kd [1]: 220 pM

B3: LY-CoV1404 Fab (papain digestion) (Fab, V domains shown)
VH: QITLKESGPTLVKPTQTLTLTCTFSGFSLSISGVGVGWLRQPPGKALEWLALIYWDDDKRYSPSLKSRLTISKDTSKNQVVLKMTNIDPVDTATYYCAHHSISTIFDHWGQGTLVTVSS
VL: QSALTQPASVSGSPGQSITISCTATSSDVGDYNYVSWYQQHPGKAPKLMIFEVSDRPSGISNRFSGSKSGNTASLTISGLQAEDEADYYCSSYTTSSAVFGGGTKLTVL
Kd [4]: 790 pM
